Here are results for 125 sequences from the supplement of paper PMC9112550, “Optimization of the antimicrobial peptide Bac7 by deep mutational scanning” (BMC Biology, 2022).

This data set relates to Escherichia coli TOP10. Briefly: shrunken log2 fold change of peptide-encoding DNA abundance (4.5 h post-induction vs induction); higher = less antimicrobial activity (less host growth inhibition). To be noted: time post-induction: 4.5 h; library: site-saturation at positions 5, 18, 19, 20.
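Note: peptides expressed intracellularly from a pBAD plasmid library in pooled LB shake-flask culture, induced with 0.3% L-arabinose, DNA abundance read by NGS, three biological replicates, DESeq2 with apeglm shrinkage.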

As for RRIRGRPPRLPRPRPRPLDMPRP, the “shrunken log2 fold change” value came to 0.441.

With RRIRHRPPRLPRPRPRPLKAPRP, the “shrunken log2 fold change” value was -0.364.

Consider RRIRYRPPRLPRPRPRPKKLPRP, for which the “shrunken log2 fold change” value was -0.647.

With RRIRERPPRLPRPRPRPLLHPRP, the “shrunken log2 fold change” value is -0.288.

RRIRSRPPRLPRPRPRPEENPRP: the “shrunken log2 fold change” value was 0.64.

RRIRIRPPRLPRPRPRPQYDPRP: the “shrunken log2 fold change” value was -0.043.

Consider RRIRCRPPRLPRPRPRPWNFPRP, for which the “shrunken log2 fold change” value was -0.182.

Consider RRIRQRPPRLPRPRPRPDVHPRP, for which the “shrunken log2 fold change” value is -0.304.

Consider RRIRDRPPRLPRPRPRPGSFPRP, for which the “shrunken log2 fold change” value turned out to be 0.0331.

With RRIRCRPPRLPRPRPRPADHPRP, the “shrunken log2 fold change” value came out at 0.0117.

For the sequence RRIRGRPPRLPRPRPRPRIYPRP, the “shrunken log2 fold change” value amounted to 1.15.

With RRIRVRPPRLPRPRPRPGINPRP, the “shrunken log2 fold change” value was -0.0188.

Consider RRIRTRPPRLPRPRPRPNNTPRP, for which the “shrunken log2 fold change” value is -0.518.

For RRIRHRPPRLPRPRPRPSNPPRP, the “shrunken log2 fold change” value is -0.219.

Regarding RRIRNRPPRLPRPRPRPFEFPRP, the “shrunken log2 fold change” value is -0.0681.

For RRIRGRPPRLPRPRPRPKWMPRP, the “shrunken log2 fold change” value is 0.58.

Take RRIRTRPPRLPRPRPRPDQRPRP: the “shrunken log2 fold change” value was -0.0808.

On to RRIRCRPPRLPRPRPRPYVFPRP, for which the “shrunken log2 fold change” value is -0.362.

RRIRPRPPRLPRPRPRPIYKPRP: the “shrunken log2 fold change” value is -0.333.

Turning to RRIRNRPPRLPRPRPRPWVMPRP, the “shrunken log2 fold change” value is -0.00783.

Regarding RRIRFRPPRLPRPRPRPYYLPRP, the “shrunken log2 fold change” value is -0.392.

Regarding RRIRPRPPRLPRPRPRPAYSPRP, the “shrunken log2 fold change” value was -0.23.

RRIRLRPPRLPRPRPRPGNMPRP: the “shrunken log2 fold change” value is -0.157.

Take RRIRKRPPRLPRPRPRPACCPRP: the “shrunken log2 fold change” value was 0.192.

Turning to RRIRPRPPRLPRPRPRPANDPRP, the “shrunken log2 fold change” value was -0.155.

For the sequence RRIRKRPPRLPRPRPRPGPEPRP, the “shrunken log2 fold change” value is 1.1.

For RRIRERPPRLPRPRPRPRGFPRP, the “shrunken log2 fold change” value was -0.0872.

Regarding RRIRPRPPRLPRPRPRPREIPRP, the “shrunken log2 fold change” value is 0.44.

In the case of RRIRQRPPRLPRPRPRPCKAPRP, the “shrunken log2 fold change” value was -0.218.

Regarding RRIRARPPRLPRPRPRPPFYPRP, the “shrunken log2 fold change” value came out at 0.14.

On to RRIRWRPPRLPRPRPRPKLQPRP, for which the “shrunken log2 fold change” value was 0.182.

For the sequence RRIRRRPPRLPRPRPRPICNPRP, the “shrunken log2 fold change” value was -0.12.

RRIRVRPPRLPRPRPRPIRDPRP: the “shrunken log2 fold change” value stood at 0.0875.

For RRIRIRPPRLPRPRPRPILIPRP, the “shrunken log2 fold change” value is -0.097.

Turning to RRIRIRPPRLPRPRPRPITRPRP, the “shrunken log2 fold change” value is 0.0378.

Consider RRIRERPPRLPRPRPRPVKPPRP, for which the “shrunken log2 fold change” value is -0.102.

Take RRIRFRPPRLPRPRPRPHLLPRP: the “shrunken log2 fold change” value was -0.428.

For RRIRCRPPRLPRPRPRPWNEPRP, the “shrunken log2 fold change” value is -0.705.

Regarding RRIRIRPPRLPRPRPRPQMRPRP, the “shrunken log2 fold change” value turned out to be 0.0729.

On to RRIRMRPPRLPRPRPRPKEHPRP, for which the “shrunken log2 fold change” value came to 0.617.

In the case of RRIRQRPPRLPRPRPRPSYQPRP, the “shrunken log2 fold change” value is -0.635.

For RRIRARPPRLPRPRPRPCPRPRP, the “shrunken log2 fold change” value is 0.898.

Consider RRIRTRPPRLPRPRPRPPMMPRP, for which the “shrunken log2 fold change” value was -0.121.

As to RRIRDRPPRLPRPRPRPGGIPRP, the “shrunken log2 fold change” value came to 0.129.

For RRIRHRPPRLPRPRPRPPLFPRP, the “shrunken log2 fold change” value stood at 0.169.

As for RRIRPRPPRLPRPRPRPRQFPRP, the “shrunken log2 fold change” value is 0.556.

With RRIRCRPPRLPRPRPRPYAIPRP, the “shrunken log2 fold change” value is -0.803.

Regarding RRIRMRPPRLPRPRPRPTWVPRP, the “shrunken log2 fold change” value was found to be 0.496.

For RRIRARPPRLPRPRPRPRAMPRP, the “shrunken log2 fold change” value is 0.808.

With RRIRERPPRLPRPRPRPYHIPRP, the “shrunken log2 fold change” value is -0.212.

For the sequence RRIRARPPRLPRPRPRPLDAPRP, the “shrunken log2 fold change” value was determined as 0.746.

Regarding RRIRSRPPRLPRPRPRPDYFPRP, the “shrunken log2 fold change” value is -0.133.

Turning to RRIRARPPRLPRPRPRPTCEPRP, the “shrunken log2 fold change” value was 0.723.

Consider RRIRSRPPRLPRPRPRPLRYPRP, for which the “shrunken log2 fold change” value was found to be 0.166.

With RRIRIRPPRLPRPRPRPQETPRP, the “shrunken log2 fold change” value was -0.0344.

For the sequence RRIRGRPPRLPRPRPRPSPFPRP, the “shrunken log2 fold change” value was determined as 0.168.

Regarding RRIRVRPPRLPRPRPRPFCTPRP, the “shrunken log2 fold change” value is -0.389.

For RRIRWRPPRLPRPRPRPGDQPRP, the “shrunken log2 fold change” value was 0.175.

RRIRWRPPRLPRPRPRPSGAPRP: the “shrunken log2 fold change” value came to 0.527.

With RRIRDRPPRLPRPRPRPAGDPRP, the “shrunken log2 fold change” value came out at 0.523.

Consider RRIRMRPPRLPRPRPRPYHYPRP, for which the “shrunken log2 fold change” value is -0.638.

Consider RRIRMRPPRLPRPRPRPCNWPRP, for which the “shrunken log2 fold change” value is -0.00208.

With RRIRARPPRLPRPRPRPINCPRP, the “shrunken log2 fold change” value is -0.0513.

As to RRIRMRPPRLPRPRPRPFDWPRP, the “shrunken log2 fold change” value amounted to 0.597.

As to RRIRMRPPRLPRPRPRPAFDPRP, the “shrunken log2 fold change” value is 0.629.

Consider RRIRERPPRLPRPRPRPPKEPRP, for which the “shrunken log2 fold change” value was found to be 0.0608.

In the case of RRIRRRPPRLPRPRPRPMNVPRP, the “shrunken log2 fold change” value is -0.156.

For the sequence RRIRTRPPRLPRPRPRPSAQPRP, the “shrunken log2 fold change” value was 0.0735.

RRIRHRPPRLPRPRPRPFRNPRP: the “shrunken log2 fold change” value is -0.221.

Consider RRIRYRPPRLPRPRPRPQQSPRP, for which the “shrunken log2 fold change” value is -0.454.

In the case of RRIRARPPRLPRPRPRPMTFPRP, the “shrunken log2 fold change” value was -0.191.

In the case of RRIRDRPPRLPRPRPRPWCAPRP, the “shrunken log2 fold change” value was -0.0367.

Take RRIRGRPPRLPRPRPRPGQAPRP: the “shrunken log2 fold change” value was 0.353.

In the case of RRIRWRPPRLPRPRPRPVPSPRP, the “shrunken log2 fold change” value is 0.058.

Take RRIRDRPPRLPRPRPRPDVYPRP: the “shrunken log2 fold change” value is -0.00822.

With RRIRFRPPRLPRPRPRPPKRPRP, the “shrunken log2 fold change” value turned out to be 0.467.

Take RRIRCRPPRLPRPRPRPQHGPRP: the “shrunken log2 fold change” value was -0.211.

With RRIRARPPRLPRPRPRPTAPPRP, the “shrunken log2 fold change” value was found to be 0.8.

As for RRIRPRPPRLPRPRPRPWMAPRP, the “shrunken log2 fold change” value is -0.113.

As for RRIRCRPPRLPRPRPRPDSGPRP, the “shrunken log2 fold change” value was 0.0093.

Turning to RRIRMRPPRLPRPRPRPISSPRP, the “shrunken log2 fold change” value is -0.0416.

For the sequence RRIRNRPPRLPRPRPRPEDMPRP, the “shrunken log2 fold change” value is -0.0541.

RRIRKRPPRLPRPRPRPRPPPRP: the “shrunken log2 fold change” value is 1.15.

Turning to RRIRHRPPRLPRPRPRPLTDPRP, the “shrunken log2 fold change” value is -0.251.

Regarding RRIRDRPPRLPRPRPRPAFCPRP, the “shrunken log2 fold change” value is 0.111.

Consider RRIRMRPPRLPRPRPRPDFNPRP, for which the “shrunken log2 fold change” value was found to be 0.0763.

Take RRIRWRPPRLPRPRPRPCCPPRP: the “shrunken log2 fold change” value is -0.206.

Consider RRIRFRPPRLPRPRPRPDPRPRP, for which the “shrunken log2 fold change” value turned out to be 0.182.

Consider RRIRGRPPRLPRPRPRPVLMPRP, for which the “shrunken log2 fold change” value was 0.316.

Take RRIRTRPPRLPRPRPRPQEGPRP: the “shrunken log2 fold change” value is -0.0173.

Consider RRIRHRPPRLPRPRPRPHWGPRP, for which the “shrunken log2 fold change” value is -0.123.

In the case of RRIRFRPPRLPRPRPRPIKAPRP, the “shrunken log2 fold change” value was -0.128.

As to RRIRERPPRLPRPRPRPKHIPRP, the “shrunken log2 fold change” value was -0.766.

Consider RRIRSRPPRLPRPRPRPFDTPRP, for which the “shrunken log2 fold change” value was -0.201.

As for RRIRPRPPRLPRPRPRPSCKPRP, the “shrunken log2 fold change” value was -0.189.

With RRIRDRPPRLPRPRPRPLPMPRP, the “shrunken log2 fold change” value worked out at 0.0543.

On to RRIRSRPPRLPRPRPRPTTNPRP, for which the “shrunken log2 fold change” value came to 0.00407.

In the case of RRIRARPPRLPRPRPRPIADPRP, the “shrunken log2 fold change” value is 0.394.

As for RRIRPRPPRLPRPRPRPPCEPRP, the “shrunken log2 fold change” value worked out at 0.522.

As for RRIRLRPPRLPRPRPRPHDYPRP, the “shrunken log2 fold change” value was -0.398.

Turning to RRIRDRPPRLPRPRPRPMFWPRP, the “shrunken log2 fold change” value worked out at 0.0751.

For the sequence RRIRARPPRLPRPRPRPMMNPRP, the “shrunken log2 fold change” value was found to be 0.198.

As for RRIRDRPPRLPRPRPRPNMTPRP, the “shrunken log2 fold change” value came to 0.0572.

On to RRIRCRPPRLPRPRPRPFPQPRP, for which the “shrunken log2 fold change” value is -0.265.

In the case of RRIRCRPPRLPRPRPRPQDMPRP, the “shrunken log2 fold change” value came out at 0.0633.

As to RRIRWRPPRLPRPRPRPIHWPRP, the “shrunken log2 fold change” value came out at 0.202.

Turning to RRIRYRPPRLPRPRPRPGRFPRP, the “shrunken log2 fold change” value was -0.0548.

With RRIRLRPPRLPRPRPRPFQKPRP, the “shrunken log2 fold change” value was found to be 0.382.

Turning to RRIRWRPPRLPRPRPRPKYGPRP, the “shrunken log2 fold change” value came out at 0.085.

Regarding RRIRKRPPRLPRPRPRPYCQPRP, the “shrunken log2 fold change” value is -0.773.

Turning to RRIRLRPPRLPRPRPRPIEFPRP, the “shrunken log2 fold change” value was -0.449.

Regarding RRIRYRPPRLPRPRPRPAMKPRP, the “shrunken log2 fold change” value was -0.000923.

With RRIRKRPPRLPRPRPRPSWCPRP, the “shrunken log2 fold change” value was -0.152.

For RRIRQRPPRLPRPRPRPWKAPRP, the “shrunken log2 fold change” value is -0.112.

Regarding RRIRKRPPRLPRPRPRPIRLPRP, the “shrunken log2 fold change” value was -0.0783.

Turning to RRIRDRPPRLPRPRPRPVECPRP, the “shrunken log2 fold change” value was found to be 0.018.

For the sequence RRIRWRPPRLPRPRPRPEWSPRP, the “shrunken log2 fold change” value worked out at 0.0628.

With RRIRDRPPRLPRPRPRPNPPPRP, the “shrunken log2 fold change” value is 0.2.

Turning to RRIRCRPPRLPRPRPRPANLPRP, the “shrunken log2 fold change” value is -0.687.

Turning to RRIRCRPPRLPRPRPRPAGRPRP, the “shrunken log2 fold change” value worked out at 0.373.

As to RRIRDRPPRLPRPRPRPEFAPRP, the “shrunken log2 fold change” value was 1.54.

As for RRIRKRPPRLPRPRPRPNRYPRP, the “shrunken log2 fold change” value was 0.0446.

Regarding RRIRCRPPRLPRPRPRPLRWPRP, the “shrunken log2 fold change” value came out at 0.613.

For RRIRNRPPRLPRPRPRPKPVPRP, the “shrunken log2 fold change” value worked out at 0.24.

Consider RRIRTRPPRLPRPRPRPITEPRP, for which the “shrunken log2 fold change” value is -0.183.
